# Assay results taken from patent US5795718, “Detection of complementary nucleotide sequences” (Boehringer Mannheim Corporation).
# T1: BamHI (UniProt P23940 P23940:1-213)
# T1 sequence: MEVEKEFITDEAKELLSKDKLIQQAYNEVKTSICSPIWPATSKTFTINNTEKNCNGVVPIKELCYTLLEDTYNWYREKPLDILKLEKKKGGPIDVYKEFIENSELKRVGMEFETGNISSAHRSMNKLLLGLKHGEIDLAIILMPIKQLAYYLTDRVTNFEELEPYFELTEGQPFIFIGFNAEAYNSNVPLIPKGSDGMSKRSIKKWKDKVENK
# Legend:
# [1] = target: T1, BamHI; test: cleavage_in_vitro; complementation rate 47.16 to 114.07 mAU/min after BamHI; 37 C, 40 min; conditions: chain copies: 2; 24 bp duplex within circular ssDNA
# Text: Complementation Activity of ED4-BP-1 Before and After Hybridization To Target Nucleic Acid In order to determine whether an ED-nucleic acid conjugate would be useful as a probe for the complementation activity detection of specific nucleic acid sequences, a conjugate was made of ED4 and BP-1. BP-1 is a single-stranded DNA oligonucleotide 24 bases long (SEQ ID NO:1, FIG. 2). The BP-1 sequence is complementary to the multiple cloning site region of the single-stranded DNA from the bacteriophage M13 mp18 (SEQ ID NO:2, FIG. 3). The viral DNA which is about 7250 bases in length was used as a model target nucleic acid. 2.4×10^-10 mol of ED4-BP-1 conjugate was incubated with and without 2.4×10^-9 mol of M13 mp18 DNA at 55° C. for 10 minutes. EA (20 U/test) and CPRG (2.0 mg/ml final) were then added and the mixture incubated at 37° C. for 4 minutes. The rate of increase in A$574$ was measured per minute between 4 and 6 minutes. The rates of complementation were 80.73 and 47.16 mAU/min without and with target M13 DNA mp18 DNA, respectively. Therefore complementation was reduced approximately 42% (FIG. 4) by hybridization with the target nucleic acid.
# ED4-BP-1 was hybridized to M13 mp18 for 10 min at 55° C. […] The complementation efficiency of the ED4-BP-1/M13 mp18 complex before and after digestion with Bam HI was measured. The rate of increase in A574 was measured per minute as described above. […]
# [2] = target: T2, Nuclease P1 (UniProt P24289 P24289:1-270); test: cleavage_in_vitro; 183.54 to 467.93 mAU/min after digestion; 20 mM Na acetate pH 5.3, 4 mM Mg acetate, 37 C; conditions: tags: Bethesda Research Laboratories
# T2 sequence (P24289 whole entry, one chain of several): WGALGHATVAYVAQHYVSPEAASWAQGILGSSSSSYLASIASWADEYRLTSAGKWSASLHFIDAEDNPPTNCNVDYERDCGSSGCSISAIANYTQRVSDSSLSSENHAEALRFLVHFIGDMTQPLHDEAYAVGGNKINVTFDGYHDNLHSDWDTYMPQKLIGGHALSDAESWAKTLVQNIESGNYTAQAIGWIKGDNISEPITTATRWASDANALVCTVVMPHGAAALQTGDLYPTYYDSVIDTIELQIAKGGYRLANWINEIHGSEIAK
# [3] = target: T2, Nuclease P1; test: cleavage_in_vitro; almost 5-fold complementation increase; 20 mM Na acetate pH 5.3, 4 mM Mg acetate, 37 C, 16.5 min; conditions: tags: Bethesda Research Laboratories
# Protocol: ED4-$T20$ was incubated at 37° C. for 16.5 minutes with various amounts of nuclease, P1 (Bethesda Research Laboratories), in 20 mM Na acetate pH 5.3, 4 mM Mg acetate. At the end of the incubation period, EA and the substrate, CPRG, were added in 150 mM Na phosphate, pH 7.2, 400 mM NaCl, 10 mM EGTA, 0.05% Tween 20 and 10 mM methionine. The rate of product formation was measured at 574 nm in mAU/min. The results (FIG. 1) indicate that the complementation activity of ED4-$T20$ can be increased by digestion of the conjugate with nuclease. An almost 5-fold increase in activity is seen between the use of no nuclease and highest concentration […] conditions.
binder,measurement,setting,value
"ED4-BP-1/M13 mp18 hybrid (dsDNA, 5' amine linker (3 or 6 carbons) SMCC-conjugated to ED4 peptide on BP-1) DNA 1: GAGGATCCCCGGGTACCGAGCTCG DNA 2: TGATTACGAATTCGAGCTCGGTACCCGGGGATCCTCTAGAGTCGA",activity,[1],2.4 fold
"GAGGATCCCCGGGTACCGAGCTCG (ssDNA, 5' amine linker SMCC-conjugated to ED4 peptide) [ED4-BP-1]",activity,[2],~2.5 fold
"TTTTTTTTTTTTTTTTTTTT (ssDNA, 5' amine linker SMCC-conjugated to ED4 peptide) [ED4-T20]",activity,[3],~5 fold
